According to patent US20170081400A1 (CEPHALON, published 2017):

T1: human TL1A extracellular domain with N-terminal HIS and FLAG tag (human, UniProt O95150 72-251)
T1 construct: the whole entry is named; also called TNFSF15
T1 sequence: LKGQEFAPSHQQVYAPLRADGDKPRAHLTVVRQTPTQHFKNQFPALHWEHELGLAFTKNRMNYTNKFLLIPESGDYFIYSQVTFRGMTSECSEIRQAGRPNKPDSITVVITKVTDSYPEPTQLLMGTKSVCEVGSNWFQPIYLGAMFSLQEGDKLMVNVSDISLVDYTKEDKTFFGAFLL


Columns and labels:
[1] = molecular target: T1, human TL1A extracellular domain with …; assay: SPR Run 7, antibody on Protein A, TL1A 5 ug/mL, timepoint 220
Excerpt: (§1) 1.5. Antibody expression and antigen binding as determined by SPR. Using a CM5 sensor chip (GE Healthcare) Protein A (Pierce) was coupled to the chip surface using an amine coupling kit (GE Healthcare). Protein A was coupled on flow cell 1 and 2 (or alternatively 3 and 4) using a BIACORE® T200. […] The amount of supernatant or purified protein (as well as the concentration) injected during the capture stage varied between runs and is specified in the header of the Tables 3-11. At the end of injection of the supernatant or purified antibody the change in response units was measured. This value was reported as Capture Level in Tables 3-11. […] The response units were measured prior to the end of the dissociation phase. […] The sensorgrams were double referenced (flow cell 2 is subtracted from flow cell 1 and a buffer blank). As there were a large number of antibody variants to screen, these were screened across different runs (Tables 3-11). […] A summary of the conditions used in each run is below:
(§2) 2.1. […] In some experiment the antibodies were purified using Protein A chromatography (See 1.4) and purified antibodies were used in BIACORE® (GE Healthcare) experiments.

[2] = molecular target: T1, human TL1A extracellular domain with …; assay: SPR Run 7, antibody on Protein A, TL1A 5 ug/mL, timepoint 44
Excerpt: as §1, §2

Row | TL1A Binding Level (Late) [1] [RU] | TL1A Binding Level (Early) [2] [RU] | Binder
1 | 152 | 166 | 320-521 (antibody, human IgG1, name in Kabat numbering, V domains shown, full-length human IgG1, lambda) VH: QVQLVQSGAEVKKPGASVKVSCKASGYTFTSYDINWVRQAPGQGLEWMGWLNPWSGNTGYAQKFQGRVTMTADRSTSTAYMELSSLRSEDTAVYYCAREVPETAAFEYWGQGTLVTVSS VL: QSVLTQPPSVSGAPGQRVTISCTSSSSDIGAGLGVHWYQQLPGTAPKLLIEGYYNRPSGVPDRFSGSKSGTSASLTITGLLPEDEGDYYCQSYDGTLSALFGGGTKLTVLG
2 | 102 | 109 | 320-534 (antibody, human IgG1, name in Kabat numbering, V domains shown, full-length human IgG1, lambda) VH: QVQLVQSGAEVKKPGASVKVSCKASGYTFTSYDINWVRQAPGQGLEWMGWLNPNSDNTGYAQKFQGRVTMTADRSTSTAYMELSSLRSEDTAVYYCAREVPETAAFEYWGQGTLVTVSS VL: QSVLTQPPSVSGAPGQRVTISCTSSSSDIGAGLGVHWYQQLPGTAPKLLIEGYYNRPSGVPDRFSGSKSGTSASLTITGLLPEDEGDYYCQSYDGTLSALFGGGTKLTVLG
3 | 82 | 88 | 320-523 (antibody, human IgG1, name in Kabat numbering, V domains shown, full-length human IgG1, lambda) VH: QVQLVQSGAEVKKPGASVKVSCKASGYTFTSYDINWVRQAPGQGLEWMGWLNPNAGNTGYAQKFQGRVTMTADRSTSTAYMELSSLRSEDTAVYYCAREVPETAAFEYWGQGTLVTVSS VL: QSVLTQPPSVSGAPGQRVTISCTSSSSDIGAGLGVHWYQQLPGTAPKLLIEGYYNRPSGVPDRFSGSKSGTSASLTITGLLPEDEGDYYCQSYDGTLSALFGGGTKLTVLG
4 | 86 | 93 | 320-533 (antibody, human IgG1, name in Kabat numbering, V domains shown, full-length human IgG1, lambda) VH: QVQLVQSGAEVKKPGASVKVSCKASGYTFTSYDINWVRQAPGQGLEWMGWLNPNSQNTGYAQKFQGRVTMTADRSTSTAYMELSSLRSEDTAVYYCAREVPETAAFEYWGQGTLVTVSS VL: QSVLTQPPSVSGAPGQRVTISCTSSSSDIGAGLGVHWYQQLPGTAPKLLIEGYYNRPSGVPDRFSGSKSGTSASLTITGLLPEDEGDYYCQSYDGTLSALFGGGTKLTVLG
5 | 124 | 134 | 320-526 (antibody, human IgG1, name in Kabat numbering, V domains shown, full-length human IgG1, lambda) VH: QVQLVQSGAEVKKPGASVKVSCKASGYTFTSYDINWVRQAPGQGLEWMGWLNPNHGNTGYAQKFQGRVTMTADRSTSTAYMELSSLRSEDTAVYYCAREVPETAAFEYWGQGTLVTVSS VL: QSVLTQPPSVSGAPGQRVTISCTSSSSDIGAGLGVHWYQQLPGTAPKLLIEGYYNRPSGVPDRFSGSKSGTSASLTITGLLPEDEGDYYCQSYDGTLSALFGGGTKLTVLG
6 | 7 | 10 | 320-532 (antibody, human IgG1, name in Kabat numbering, V domains shown, full-length human IgG1, lambda) VH: QVQLVQSGAEVKKPGASVKVSCKASGYTFTSYDINWVRQAPGQGLEWMGWLNPNSSNTGYAQKFQGRVTMTADRSTSTAYMELSSLRSEDTAVYYCAREVPETAAFEYWGQGTLVTVSS VL: QSVLTQPPSVSGAPGQRVTISCTSSSSDIGAGLGVHWYQQLPGTAPKLLIEGYYNRPSGVPDRFSGSKSGTSASLTITGLLPEDEGDYYCQSYDGTLSALFGGGTKLTVLG
7 | 67 | 77 | 320-530 (antibody, human IgG1, name in Kabat numbering, V domains shown, full-length human IgG1, lambda) VH: QVQLVQSGAEVKKPGASVKVSCKASGYTFTSYDINWVRQAPGQGLEWMGWLNPNYGNTGYAQKFQGRVTMTADRSTSTAYMELSSLRSEDTAVYYCAREVPETAAFEYWGQGTLVTVSS VL: QSVLTQPPSVSGAPGQRVTISCTSSSSDIGAGLGVHWYQQLPGTAPKLLIEGYYNRPSGVPDRFSGSKSGTSASLTITGLLPEDEGDYYCQSYDGTLSALFGGGTKLTVLG
8 | 49 | 55 | 320-524 (antibody, human IgG1, name in Kabat numbering, V domains shown, full-length human IgG1, lambda) VH: QVQLVQSGAEVKKPGASVKVSCKASGYTFTSYDINWVRQAPGQGLEWMGWLNPNQGNTGYAQKFQGRVTMTADRSTSTAYMELSSLRSEDTAVYYCAREVPETAAFEYWGQGTLVTVSS VL: QSVLTQPPSVSGAPGQRVTISCTSSSSDIGAGLGVHWYQQLPGTAPKLLIEGYYNRPSGVPDRFSGSKSGTSASLTITGLLPEDEGDYYCQSYDGTLSALFGGGTKLTVLG
9 | 17 | 33 | 320-525 (antibody, human IgG1, name in Kabat numbering, V domains shown, full-length human IgG1, lambda) VH: QVQLVQSGAEVKKPGASVKVSCKASGYTFTSYDINWVRQAPGQGLEWMGWLNPNDGNTGYAQKFQGRVTMTADRSTSTAYMELSSLRSEDTAVYYCAREVPETAAFEYWGQGTLVTVSS VL: QSVLTQPPSVSGAPGQRVTISCTSSSSDIGAGLGVHWYQQLPGTAPKLLIEGYYNRPSGVPDRFSGSKSGTSASLTITGLLPEDEGDYYCQSYDGTLSALFGGGTKLTVLG
10 | 123 | 133 | 320-537 (antibody, human IgG1, name in Kabat numbering, V domains shown, full-length human IgG1, lambda) VH: QVQLVQSGAEVKKPGASVKVSCKASGYTFTSYDINWVRQAPGQGLEWMGWLNPNSLNTGYAQKFQGRVTMTADRSTSTAYMELSSLRSEDTAVYYCAREVPETAAFEYWGQGTLVTVSS VL: QSVLTQPPSVSGAPGQRVTISCTSSSSDIGAGLGVHWYQQLPGTAPKLLIEGYYNRPSGVPDRFSGSKSGTSASLTITGLLPEDEGDYYCQSYDGTLSALFGGGTKLTVLG
11 | 129 | 141 | 320-522 (antibody, human IgG1, name in Kabat numbering, V domains shown, full-length human IgG1, lambda) VH: QVQLVQSGAEVKKPGASVKVSCKASGYTFTSYDINWVRQAPGQGLEWMGWLNPYSGNTGYAQKFQGRVTMTADRSTSTAYMELSSLRSEDTAVYYCAREVPETAAFEYWGQGTLVTVSS VL: QSVLTQPPSVSGAPGQRVTISCTSSSSDIGAGLGVHWYQQLPGTAPKLLIEGYYNRPSGVPDRFSGSKSGTSASLTITGLLPEDEGDYYCQSYDGTLSALFGGGTKLTVLG
12 | 105 | 115 | 320-536 (antibody, human IgG1, name in Kabat numbering, V domains shown, full-length human IgG1, lambda) VH: QVQLVQSGAEVKKPGASVKVSCKASGYTFTSYDINWVRQAPGQGLEWMGWLNPNSKNTGYAQKFQGRVTMTADRSTSTAYMELSSLRSEDTAVYYCAREVPETAAFEYWGQGTLVTVSS VL: QSVLTQPPSVSGAPGQRVTISCTSSSSDIGAGLGVHWYQQLPGTAPKLLIEGYYNRPSGVPDRFSGSKSGTSASLTITGLLPEDEGDYYCQSYDGTLSALFGGGTKLTVLG
13 | 83 | 94 | 320-529 (antibody, human IgG1, name in Kabat numbering, V domains shown, full-length human IgG1, lambda) VH: QVQLVQSGAEVKKPGASVKVSCKASGYTFTSYDINWVRQAPGQGLEWMGWLNPNWGNTGYAQKFQGRVTMTADRSTSTAYMELSSLRSEDTAVYYCAREVPETAAFEYWGQGTLVTVSS VL: QSVLTQPPSVSGAPGQRVTISCTSSSSDIGAGLGVHWYQQLPGTAPKLLIEGYYNRPSGVPDRFSGSKSGTSASLTITGLLPEDEGDYYCQSYDGTLSALFGGGTKLTVLG
14 | 61 | 66 | 320-531 (antibody, human IgG1, name in Kabat numbering, V domains shown, full-length human IgG1, lambda) VH: QVQLVQSGAEVKKPGASVKVSCKASGYTFTSYDINWVRQAPGQGLEWMGWLNPNSANTGYAQKFQGRVTMTADRSTSTAYMELSSLRSEDTAVYYCAREVPETAAFEYWGQGTLVTVSS VL: QSVLTQPPSVSGAPGQRVTISCTSSSSDIGAGLGVHWYQQLPGTAPKLLIEGYYNRPSGVPDRFSGSKSGTSASLTITGLLPEDEGDYYCQSYDGTLSALFGGGTKLTVLG
15 | 115 | 126 | 320-535 (antibody, human IgG1, name in Kabat numbering, V domains shown, full-length human IgG1, lambda) VH: QVQLVQSGAEVKKPGASVKVSCKASGYTFTSYDINWVRQAPGQGLEWMGWLNPNSHNTGYAQKFQGRVTMTADRSTSTAYMELSSLRSEDTAVYYCAREVPETAAFEYWGQGTLVTVSS VL: QSVLTQPPSVSGAPGQRVTISCTSSSSDIGAGLGVHWYQQLPGTAPKLLIEGYYNRPSGVPDRFSGSKSGTSASLTITGLLPEDEGDYYCQSYDGTLSALFGGGTKLTVLG
16 | 108 | 121 | 320-528 (antibody, human IgG1, name in Kabat numbering, V domains shown, full-length human IgG1, lambda) VH: QVQLVQSGAEVKKPGASVKVSCKASGYTFTSYDINWVRQAPGQGLEWMGWLNPNLGNTGYAQKFQGRVTMTADRSTSTAYMELSSLRSEDTAVYYCAREVPETAAFEYWGQGTLVTVSS VL: QSVLTQPPSVSGAPGQRVTISCTSSSSDIGAGLGVHWYQQLPGTAPKLLIEGYYNRPSGVPDRFSGSKSGTSASLTITGLLPEDEGDYYCQSYDGTLSALFGGGTKLTVLG
17 | 136 | 146 | 320-527 (antibody, human IgG1, name in Kabat numbering, V domains shown, full-length human IgG1, lambda) VH: QVQLVQSGAEVKKPGASVKVSCKASGYTFTSYDINWVRQAPGQGLEWMGWLNPNKGNTGYAQKFQGRVTMTADRSTSTAYMELSSLRSEDTAVYYCAREVPETAAFEYWGQGTLVTVSS VL: QSVLTQPPSVSGAPGQRVTISCTSSSSDIGAGLGVHWYQQLPGTAPKLLIEGYYNRPSGVPDRFSGSKSGTSASLTITGLLPEDEGDYYCQSYDGTLSALFGGGTKLTVLG
